Data from PMC2676315.

Tests used:
Test in all cases: other fluorescence titration; quenching of the tryptophan fluorescence of SET/TAF-Iβ polypeptides (0.2 to 4 μM; excitation 295 nm, emission 345 nm) on addition of histone; PBS, 25°C; non-linear regression; three repeats
[1] = target: SET/TAF-Iβ (110–277), GST removed (human) (UniProt Q01105)
[2] = target: SET/TAF-Iβ (1–210), GST removed (human) (UniProt Q01105)
[3] = target: SET/TAF-Iβ (1–277), GST removed (human) (UniProt Q01105)
[4] = target: SET/TAF-Iβ (76–185), GST removed (human) (UniProt Q01105)
[5] = target: SET/TAF-Iβ (76–210), GST removed (human) (UniProt Q01105)

Row | Substance | Kd [1] [nM] | Kd [2] [nM] | Kd [3] [nM] | Kd [4] [nM] | Kd [5] [nM]
1 | calf thymus histone H3 (from UniProt P68432 1-136) (natural protein) | 160 | 130 | 150 | 100 | 140
2 | histone H2B (from UniProt P62808 1-126) (natural protein) | – | – | 2870 | – | –
